Experiment: soluble on expression in E. coli; label from the status in PepcDB or PDB records

Sequence | soluble on expression in E. coli
MGSDKIHHHHHHMKEGKANILIIDDISSNIFALENLLMTENRTFFKATSGDEGLKLALSKPVDLIILDVQMPEMDGFEVANMLKSNKRTKDIPILFASAELKEQKNMLKGLEEGAIDYLFKPLDPEITKAKVNMLIRLELQRKEMVEINSALEKSAILINNCLDIICTIDAETFKFEAFNVAMTNVLGYSSEEITSQSLLFFLQESDREFIKNLKKSDSNTGSFEIQIICKDSSIKWLQWNIVVKGGKWFSNARDITERKKKDDEIIRLNQDLHENIQQLENANKELESFSYSVSHDLRAPLRSINNYAQMLEDAFAAQMDEKSTRLLGNIKRNAFRMDTLIDDLLAFSRLGRKPVQKQSINMNDLVQHVYADMQGTFKGEFVLPALPDIDADYNLLKQVVVNLLSNAIKYSGKIEEPRIEVGYTKNPNAVVYYIKDNGAGFDMEYSDKLFGVFQRLHSTKEFEGTGVGLAIVKRIVEKHGGTIWAEAKVGEGATFYFSLPAPV | not soluble
MNVDARVGVAVDGAQSALNTATTVHSSVVMTQIKPQAKLGTFQNLLAGGIAGAISKTCTAPLARLTILFQLQGMQSEGAVLSRPNLRREASRIINEEGYRAFWKGNLVTVVHRIPYTAVNFYAYEKYNLFFNSNPVVQSFIGNTSGNPIVHFVSGGLAGITAATATYPLDLVRTRLAAQRNAIYYQGIEHTFRTICREEGILGLYKGLGATLLGVGPSLAINFAAYESMKLFWHSHRPNDSDLVVSLVSGGLAGAVSSTDDKLFDAHNYVATYPLDLVRRRMQVEGAGGRARVYNTGLFGTFKHIFKSEGFKGIYRGILPEYYKVVPGVGIVFMTYDALRRLLTSLPD | soluble
MSTGRTAITQPLRRLMRCSRALRRGTWPCSIGLQGIPIKSTPLQLRSCAQRLTFPGTSTGFLWEVWAMSYLRYVKIIGTVHVSPESVREVRETIIREKPDAIALELDYPRLLALLRRERLTLPQALKLGKMGIFGFILQELEMFFGRSFGESPGEEMIEAYKAAASLGIPVYLIDKPVNETLAGMLSSPPIEKLRFGIEVLASLLPGKLKELDYSYLMKEFREKFPHMYKVLVEERNLYMAINLMRIVDSLLEKKKKVKVVAVVGLGHKKGIERILNAHKPRAVKINSL | not soluble
MLTGCSRRELLDDYPVSGVDIKLDWNGVTDKLPEGVRVIFYPKSAEGRKIDTYLSVRGGKVKVPPGRYSVVAYNYDTETVQIRGEEAYETIEAFTGYCNGLGIAGTEKMVWGPDPLYVVQIDDLHIANSEEELLLDWKPKLVVKTYFFKIKVEGLEYVSSIVGSVEGMAGCYCLGRCCGMMCDAPIYFEAQGRSGEVTGSFTAFGMPEAAISRAGDKIKLTLAFIKVDKTVQKAEIDITEVVTNSESGGSGGGNVDEPPTEIELPLDEKVKVEKPTTNPDGGGGGIGGDVGDWGDEDEVVLPVE | not soluble
MGSDKIHHHHHHGETIDLGHDTTLDYSVTASYGAAVRTGTQSNTLLSPANINGDDGNRNFKRGDMTANRVSLLGEAHVKHDAFGALVRGSVFYDWAYSGTNSNNAPGTVNHSGPFNEFTGSARDYHESRAQLLDAYVYGAVPIESTQLSFKLGNQVVAWGESLFFANIAGAQGPADATKAFVPGAEVKDILLPVPQASVQWQVTPAFSLMGYYQFTFKPNQLFAPGSYFSTSDIVGPGAEFIIGPGFRIPRGPDISPSDWGQWGIGGRFRVFEDTEIGLYQLRYHDKNPSVVTSLFPTLQYQQKYFGGINLTGASFSTQLAGANVAGEVSYKDGVPMLVDVAGSPTASRGKALQAQLSAIYAIGPTFLANSQTLLGEIAYLHVIGVDSVMGFDKLSNTRNSAAFQVGWSLTYNNVFDGWDLTVPLTYAQQFSGNAAVAGAFGTLMGYGDKRASVGLTFKYLNNLELNLTYAAFIGGASIANRPLADRDYVAFNAKYSF | not soluble
MAPPAQPPPVAVKNTKEAWTKFMKKKAEQAVYPSKESSTLQPKYLFDASTLVLPMCFECRRASRHLEMAINLCSICRANFEAQIASRFFRHDVLLVKRKLEANQDTTNLKE | not soluble
GPGSMTTPNFELYGYFRSSCSGRLRIAFHLKSIPYTRHPVNLLKGEQHSDTYKSLNPTNTVPLLVVSNINNTVSPSSASFSIGQSLAALEYLEEALPTNARPLLPPISNPVARAHVRTICNIIACDVQPVTNLKIQKKVKALDGDPTVWSRDLATQGFGAVEKLLELSAGRFCVGDEITLADVCLVPAVWAAERVGMDLARFPITKRVFEEMLKEEAVQKAHWQKQEDTPEDLRA | soluble
MGSDKIHHHHHHMNAPANFDSLEVGFDVPALPGMDEADIQTPCLVLDLDALERNIKKMGDYARAHGMRHRVHGKMHKSVDVAKLQERLGGAIGVCCQKVSEAEVFARGGIKDVLVSNQVRDPAKIDRLARLPKLGARTIVCVDDPANVADLSAAAQKHDTEIECFVEIDCGAGRCGVTTTEDVVEIAQAIDAAPGLKFTGIQAYQGAMQHLDSYEARKEKLDVAIAQVRDAVEGLKAADLAPELVSGGGTGSYYFESNSGVYNELQCGSYAFMDADYGRILDQDGKRIDQGEWENAFFILTQVMSHAKADKAICDAGLKAQSVDSGLPFIFGRTDVEYVKCSDEHGVIADPDGVLKVGEKLKLVPGHCDPTANVHDWYVGVRNGKVETLWPVSARGKAY | not soluble
AAGTVFTTVEDLGSKILLTCSLNDSATEVTGHRWLKGGVVLKEDALPGQKTEFKVDSDDQWGEYSCVFLPEPMGTANIQLHGPPRVKAVKSSEHINEGETAMLVCKSESVPPVTDWAWYKITDSEDKALMNGSESRFFVSSSQGRSELHIENLNMEADPGQYRCNGTSSKGSDQAIITLRVRSH | soluble
MKVIAVNGGPRKQWNTATLLHKALEGAQSAGAETDLFHLYDLNYKGCISCFGCKRKNSSRIGHCVLKDELTPLLEEVLKCDALLLGSPIYFGNVTGAMRSFLERLFFSLLSYNEGQRTVFPRKVASGFIYTMNVPEDFLPQLGYEAVFKANARSLELLNGPSEYLLATDTYQFDNYSNYEASRFNEQHKAQVRQERFPQDCRQAFDLGAR | not soluble
MAHHHHHHMASVGRFVQTADPAVTALESPPLPTETRLWRQSPDCQSESDSNRVSGSVLDSVKSNGGPKHASTARLHASQDLPTSVTRFLCLSSSSNSAAAKDLRRQLLVVRDCCVALGNKVKGSELLLLGGSQLSRKVEAMADFNSCLGVIFAASLTFTGETEGVAKDTLCSVVEMLKSAQESGDEKVFRAAVVKIVNRILLCTPLRPPARNAAKETARKSAGKQEQHAEQEPKLEDECLDFLTVEDGVPVLLECVWKRWLRYFEDGYVRYVKKLMAEERQALEAAAAAAAADDYNGEEAQYVDGVSATTTQTISTVPLFTTCQDYWKSPASAYAQFCYILLAIFFVRTKDFSLNYLARVTKLVQYFTYQLEFEDGEPIAVRTDTDAEEDSAQSEDEDDDRTPPQQEGPRKEKQVHSLPMPEYDKAVTQRRFRMSRRSSSQGLVPTVVSFKKAEKPRRHCHKCFFTDALPGDLRPSVEAVRQEEAEAAARDSEEHSHLPVVRRSANLDLSEHSISPQREREQLDACDASMESVQGV | not soluble
MGLSVVILAAGKGSRMNSNKPKVLQTLAAKTLIEHVVSSVEKLNPDNIVVVTGHLKEQVEDALQGRNITFVYQQQQLGTGHAVLQALPYLKEQKVLILYGDVPLISTEVLENLVDTTNDDDLGVLTAFVENPQGLGRIVRDKFGAVTEIVEEKDANDIQRQIKEINTGIYCVHKNLLQKWLPEIKANNVQKEYYLTDIITFAKADHVSINVTHPINEFEILGVNDRTQLASLERVWQRNVAEKIMAKGVSIADPNRFDVRGNLDVGKDCWIDINVIIKGNVKLGNNVVIGANCILKNCIIEDNVRIKSNSMVDGSIIREGAIVGPFARVRPECDVKEGAVIGNFVEAKKTILGKGSKASHLTYLGDSEIGANCNIGAGVITCNYDGVNKHKTVIGDYAFIGSDSQLIAPVNIGQGATVGAGSTIVKDVPADNLAISRARQRHIDTWQRSVKKTDK | not soluble
MSTGGFQKDQAINILLIGTDKRTGSGNDGYGDKGSAGHADTTLLLHVSKDRSNATALSIPRDLIVDVPDCPTTQEDGSTKVIPGSTGVRFNTSLGQSGRTPSCTMRTVTELTGVTPDNFMVADFNAVKTLSSAVGGVEVCLAKDIDDPDSHLNLPAGKHTVEGEEALAFVRTRHSVGFGGDLSRIELQQQFLSSLMRKLKSNDTLTSPTKMVKLAEAGTDALTVDAKLKSIGKLKDLGLELGKLDTKNLTFATVPVKDNPAEKTPVTVVLKDGPAQQVFDMVKNDVSFTEVKKQEKEKKDKEEAAVAARLEGKKSEPSEVRVRVLNGGASSGSAGRELTYLQNEAGVTKSENAGNAPADIAKTTLEYAPDQADQARALAEILGLTGAAMKPGESVTNSQGLPAMTLTLGKDFKGAGVKLDATSAKAPEDLQKSTADKVECAKLEHHHHHH | soluble
MGSDKIHHHHHHMKKHLNTLFVTTQGAYLSKEGETVVVKVDREVRLRVPVHTLGGIVCFGNIGCSPYLMGFCAEKSVCISFLSERGRFLARVQGPVSGNVLLRREQYRRADDPEFSAIMARYVLTGKIANCRTVLQRALRDHQEKINADSVRQAVDHLGRCLTSLGREKSLDNLRGIEGDAAHRYFSVFNELILMQKDAFIFDERNRRPPLDPMNCLLSFAYTLLVHDIRSALEAVGLDPAVGYLHRDRPGRPGLALDIMEEFRPFIVDRLVLSLVNLRKVQAKGFKKSESGAVQMDDDTRRTLLVSYQERKQEEMLHPFLGERTTFGLLFHVQAMLLARYLRGDLDGYPPFIYR | not soluble
MGHHHHHHSHMPTDNDLKAAILELLRDLDVLLVAHFYQKDEIVELAHYTGDSLELAKIASQSDKNLIVFCGVHFMGESVKALAFDKQVIMPKLSCCSMARMIDSHYYDRSVHLLKECGVKEFYPITYINSNAEVKAKVAKDDGVVCTSRNASKIFNHALKQNKKIFFLPDKCLGENLALENGLKSAILGANSQEEIKNADVVCYNGFCSVHQLFKLEDIEFYRQKYPDILIAVHPECEPSVVSNADFSGSTSQIIEFVEKLSPNQKVAIGTESHLVNRLKAKRHHQNTFILSSTLALCPTMNETTLKDLFEVLKAYKNHRAYNTIELKDEVARLAKLALTKMMELS | not soluble
SNAMLHIDDAMIEDAVTPQAAQEVLHAAFLDFGRGSAAMQRRVRTEAGGVKLSTLGAVIPGQGVAGAKVYTTIKGQFQFVILLFSAADGRPLATCDAGTLTRKRTAACTVLAAGALARPRSSVLGLFGAGTQGAEHAAQLSARFALEAILVHDPYASPEILERIGRRCGVPARMAAPADIAAQADIVVTATRSTTPLFAGQALRAGAFVGAIGSSLPHTRELDDEALRRARAVVVEWREQTLSEAGDLVLAAPDTGLDAKVVELADVLAGRAAARQADEDIVIYKSVGVGLEDVALAGYAYRRLAAQRGWPAP | soluble
MSSDALPLLSIRGVGKTYAQPVLAEIDLQLFGGEVLALTGENGAGKSTLSKIVGGLERPGAGSLELLGRPYAPASRREAEALGVRMVMQELNLLPTLSVAENLFLHDLPRRAGWIDRRRLRAAAREAMAQVGLEAIDPDTLVGDLGIGHQQMVEIARNLIGDCRLLILDEPTAMLTAREVDMLFEQVERLRERGVAIVYISHRLEELARISQRIAVLRDGRLVCVEPIERYDADQLVTLMVGRDLGERFDLGPRQTGAPLLRVERLSRRGKVHEVSFEVRAGEIFGISGLIGSGRTELLRLIYGADRADGGQVLLGDPPQRLSLRSPADSVRQGVALITEDRKGEGLLLDQSISANLALGNLPALARHGVIDRRREEALARRQVEALRVRCADTAQAVGELSGGNQQKVVIGRWLERDCQVLLFDEPTRGIDVGAKFDIYALLAELTRRGKALVVVSSDLRELMLICDRIGVLSAGRMVDTFERDAWTQDALLAAAFAGYK | not soluble
MAFDISAQDPFSILIAGVDSREDTHAGRSDTLIVLTVNPKEESIKMLSIPRDTRTEIVGRGTDDKINHAYAFGGAQMTIDTVENFLDIPIDHYVSINMDGFTQLVDALGGVSVENSFAFSQNGYQFEEGEIFLETGDEALAYARMRKQDSRGDFGRNDRQRQIVEAVIKQSAQFSSITKAGAILDAVGESVRTDLQLDGMWELQSNYRGAAKNIEQLEITGEGTRINNIYYLIIPQEEIARVQGELKSHLELSLEHHHHHH | soluble

From the DeepSol protein solubility set
